Assays:
Assay in all cases: holdup assay
Design in all cases: key: below the threshold = too weak to quantify, mostly under pKd 3.1 to 4
SYNJ2BP, P57105 = target: T1, SYNJ2BP, P57105
T1 sequence (P57105 8-110, limits assumed, looked up): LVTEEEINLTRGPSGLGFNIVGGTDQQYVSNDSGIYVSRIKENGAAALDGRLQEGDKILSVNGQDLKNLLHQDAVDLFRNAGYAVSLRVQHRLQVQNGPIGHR

DLG4_1, P78352 = target: DLG4_1, P78352
MPP6, Q9NZW5 = target: T2, MPP6, Q9NZW5
T2 sequence (Q9NZW5 125-219, limits assumed, looked up): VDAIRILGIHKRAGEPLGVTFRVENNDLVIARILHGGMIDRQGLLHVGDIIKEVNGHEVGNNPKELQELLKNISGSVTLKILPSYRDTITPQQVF

MAGI2_5, Q86UL8 = target: MAGI2_5, Q86UL8
GRASP, Q7Z6J2 = target: GRASP, Q7Z6J2
PCLO, Q9Y6V0 = target: T3, PCLO, Q9Y6V0
T3 sequence (Q9Y6V0 4491-4600, limits assumed, looked up): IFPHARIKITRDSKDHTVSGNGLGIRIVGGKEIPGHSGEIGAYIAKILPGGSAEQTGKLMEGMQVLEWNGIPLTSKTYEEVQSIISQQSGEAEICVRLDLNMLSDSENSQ

MPP7, Q5T2T1 = target: T4, MPP7, Q5T2T1
T4 sequence (Q5T2T1 134-230, limits assumed, looked up): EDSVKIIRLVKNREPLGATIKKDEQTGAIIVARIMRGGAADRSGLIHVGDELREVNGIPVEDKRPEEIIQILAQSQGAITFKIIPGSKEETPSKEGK

FRMPD1, Q5SYB0 = target: T5, FRMPD1, Q5SYB0
T5 sequence (Q5SYB0 52-145, limits assumed, looked up): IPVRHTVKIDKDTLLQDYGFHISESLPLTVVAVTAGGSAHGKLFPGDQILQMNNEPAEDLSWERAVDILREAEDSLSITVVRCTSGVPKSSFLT

GRIP1_7, Q9Y3R0 = target: T6, GRIP1_7, Q9Y3R0
T6 sequence (Q9Y3R0 999-1096, limits assumed, looked up): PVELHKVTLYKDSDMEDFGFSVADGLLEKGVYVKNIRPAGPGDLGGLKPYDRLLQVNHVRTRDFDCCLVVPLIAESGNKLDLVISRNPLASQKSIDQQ

Inadl_4, Q8NI35 = target: Inadl_4, Q8NI35
MAGI1_1, Q96QZ7 = target: MAGI1_1, Q96QZ7
GRIP2_3, Q9C0E4 = target: GRIP2_3, Q9C0E4
GRID2IP_1, A4D2P6 = target: GRID2IP_1, A4D2P6
Inadl_3, Q8NI35 = target: Inadl_3, Q8NI35
FRMPD4, Q14CM0 = target: FRMPD4, Q14CM0
MAGI1_2, Q96QZ7 = target: MAGI1_2, Q96QZ7
PTPN13_1, Q12923 = target: T7, PTPN13_1, Q12923
T7 sequence (Q12923 1088-1188, limits assumed, looked up): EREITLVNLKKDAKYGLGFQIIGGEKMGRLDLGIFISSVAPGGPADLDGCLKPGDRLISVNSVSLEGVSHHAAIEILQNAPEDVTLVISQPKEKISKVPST

NHERF4_2, Q86UT5 = target: NHERF4_2, Q86UT5
LIN7A, O14910 = target: T8, LIN7A, O14910
T8 sequence (O14910 103-200, limits assumed, looked up): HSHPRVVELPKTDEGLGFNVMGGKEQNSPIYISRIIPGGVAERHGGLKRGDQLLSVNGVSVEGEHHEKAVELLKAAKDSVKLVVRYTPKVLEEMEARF

GRIP1_5, Q9Y3R0 = target: T9, GRIP1_5, Q9Y3R0
T9 sequence (Q9Y3R0 568-668, limits assumed, looked up): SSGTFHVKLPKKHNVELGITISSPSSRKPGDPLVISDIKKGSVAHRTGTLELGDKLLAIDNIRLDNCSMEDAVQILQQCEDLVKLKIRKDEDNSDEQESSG

MAGI2_3, Q86UL8 = target: MAGI2_3, Q86UL8
SCRIB_2, Q14160 = target: SCRIB_2, Q14160
MAST2, Q6P0Q8 = target: MAST2, Q6P0Q8
HTRA1, Q92743 = target: HTRA1, Q92743
ARHGAP21, Q5T5U3 = target: T10, ARHGAP21, Q5T5U3
T10 sequence (Q5T5U3 45-169, limits assumed, looked up): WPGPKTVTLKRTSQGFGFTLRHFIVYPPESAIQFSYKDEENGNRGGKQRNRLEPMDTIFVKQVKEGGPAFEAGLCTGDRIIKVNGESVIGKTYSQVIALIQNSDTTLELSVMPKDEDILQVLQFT

GRIP2_6, Q9C0E4 = target: GRIP2_6, Q9C0E4
PDZRN3_1, Q9UPQ7 = target: T11, PDZRN3_1, Q9UPQ7
T11 sequence (Q9UPQ7 244-349, limits assumed, looked up): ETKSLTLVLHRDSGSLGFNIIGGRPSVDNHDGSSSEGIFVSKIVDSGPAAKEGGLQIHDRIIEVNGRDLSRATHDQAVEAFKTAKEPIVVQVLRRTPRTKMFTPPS

[1] = plain residues with an end cap or a label only (N-terminal biotin on a linker: ado-ado)
[2] = modified: phospho on T at position -2 from the C-terminal residue

Sequence of MAGI1_2, Q96QZ7 (Q96QZ7 456-580): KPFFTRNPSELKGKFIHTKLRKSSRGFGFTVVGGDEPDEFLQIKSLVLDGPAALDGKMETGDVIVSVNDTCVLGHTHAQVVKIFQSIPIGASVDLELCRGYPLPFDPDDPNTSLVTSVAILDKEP
Sequence of GRID2IP_1, A4D2P6 (A4D2P6 1-87): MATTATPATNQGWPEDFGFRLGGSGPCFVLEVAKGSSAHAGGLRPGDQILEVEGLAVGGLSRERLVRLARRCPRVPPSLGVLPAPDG
Sequence of Inadl_4, Q8NI35 (Q8NI35 547-651): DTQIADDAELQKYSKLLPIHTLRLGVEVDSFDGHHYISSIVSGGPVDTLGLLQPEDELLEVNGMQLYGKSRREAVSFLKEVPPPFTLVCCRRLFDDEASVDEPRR
Sequence of Inadl_3, Q8NI35 (Q8NI35 359-469): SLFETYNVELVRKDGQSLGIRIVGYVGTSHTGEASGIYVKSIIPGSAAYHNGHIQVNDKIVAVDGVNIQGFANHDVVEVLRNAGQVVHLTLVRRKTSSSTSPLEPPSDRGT
Sequence of GRIP2_6, Q9C0E4 (Q9C0E4 648-740): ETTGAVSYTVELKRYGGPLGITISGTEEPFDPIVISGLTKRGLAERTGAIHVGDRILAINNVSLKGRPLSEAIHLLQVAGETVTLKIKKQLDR
Sequence of HTRA1, Q92743 (Q92743 360-477): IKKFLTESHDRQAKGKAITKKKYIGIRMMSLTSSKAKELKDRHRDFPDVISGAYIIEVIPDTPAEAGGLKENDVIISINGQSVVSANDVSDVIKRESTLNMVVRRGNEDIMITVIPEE
Sequence of MAGI2_5, Q86UL8 (Q86UL8 915-1017): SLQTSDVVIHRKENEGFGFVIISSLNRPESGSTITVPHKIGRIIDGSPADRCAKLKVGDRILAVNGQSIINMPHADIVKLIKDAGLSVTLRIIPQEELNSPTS
Sequence of MAGI1_1, Q96QZ7 (Q96QZ7 1-106): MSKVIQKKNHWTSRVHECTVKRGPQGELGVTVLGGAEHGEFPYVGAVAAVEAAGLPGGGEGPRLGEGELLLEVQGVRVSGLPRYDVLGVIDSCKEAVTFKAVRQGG
Sequence of SCRIB_2, Q14160 (Q14160 857-960): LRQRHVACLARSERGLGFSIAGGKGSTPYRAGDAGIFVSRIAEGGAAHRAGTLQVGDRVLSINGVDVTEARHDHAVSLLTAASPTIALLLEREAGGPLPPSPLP
Sequence of NHERF4_2, Q86UT5 (Q86UT5 220-308): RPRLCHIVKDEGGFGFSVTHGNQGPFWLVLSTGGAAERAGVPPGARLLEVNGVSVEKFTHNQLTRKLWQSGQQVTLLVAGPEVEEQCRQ
Sequence of GRIP2_3, Q9C0E4 (Q9C0E4 238-339): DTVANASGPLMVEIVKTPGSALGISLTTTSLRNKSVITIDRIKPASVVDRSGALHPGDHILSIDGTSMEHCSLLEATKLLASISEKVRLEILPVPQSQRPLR
Sequence of DLG4_1, P78352 (P78352 62-152): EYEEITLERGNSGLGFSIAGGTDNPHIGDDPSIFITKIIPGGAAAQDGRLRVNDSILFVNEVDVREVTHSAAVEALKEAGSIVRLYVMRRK
Sequence of MAST2, Q6P0Q8 (Q6P0Q8 1099-1202): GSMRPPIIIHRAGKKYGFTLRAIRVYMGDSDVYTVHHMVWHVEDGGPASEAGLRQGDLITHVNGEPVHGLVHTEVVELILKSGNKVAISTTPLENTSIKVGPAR
Sequence of GRASP, Q7Z6J2 (Q7Z6J2 96-193): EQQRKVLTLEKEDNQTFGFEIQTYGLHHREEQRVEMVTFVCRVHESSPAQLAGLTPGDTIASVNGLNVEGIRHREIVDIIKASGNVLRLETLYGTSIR
Sequence of FRMPD4, Q14CM0 (Q14CM0 67-160): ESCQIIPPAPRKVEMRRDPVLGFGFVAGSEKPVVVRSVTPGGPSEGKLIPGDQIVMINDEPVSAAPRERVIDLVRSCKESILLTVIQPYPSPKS
Sequence of MAGI2_3, Q86UL8 (Q86UL8 600-682): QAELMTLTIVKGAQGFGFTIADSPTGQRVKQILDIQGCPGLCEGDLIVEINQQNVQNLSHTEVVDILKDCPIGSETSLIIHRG

GQEEQVTTRL [TRPC5, Q9UL62]
pKd (SYNJ2BP, P57105; [1]): below the threshold | pKd (DLG4_1, P78352; [1]): below the threshold | pKd (MPP6, Q9NZW5; [1]): below the threshold | pKd (MAGI2_5, Q86UL8; [1]): 3.54 | pKd (GRASP, Q7Z6J2; [1]): 4.63 | pKd (PCLO, Q9Y6V0; [1]): below the threshold | pKd (MPP7, Q5T2T1; [1]): below the threshold | pKd (FRMPD1, Q5SYB0; [1]): below the threshold | pKd (GRIP1_7, Q9Y3R0; [1]): below the threshold | pKd (Inadl_4, Q8NI35; [1]): below the threshold | pKd (MAGI1_1, Q96QZ7; [1]): below the threshold | pKd (GRIP2_3, Q9C0E4; [1]): below the threshold | pKd (GRID2IP_1, A4D2P6; [1]): below the threshold | pKd (Inadl_3, Q8NI35; [1]): below the threshold | pKd (FRMPD4, Q14CM0; [1]): 4.29 | pKd (MAGI1_2, Q96QZ7; [1]): below the threshold | pKd (PTPN13_1, Q12923; [1]): below the threshold | pKd (NHERF4_2, Q86UT5; [1]): below the threshold | pKd (LIN7A, O14910; [1]): below the threshold | pKd (GRIP1_5, Q9Y3R0; [1]): below the threshold | pKd (MAGI2_3, Q86UL8; [1]): below the threshold | pKd (SCRIB_2, Q14160; [1]): below the threshold | pKd (MAST2, Q6P0Q8; [1]): 5.62 | pKd (HTRA1, Q92743; [1]): 3.92 | pKd (ARHGAP21, Q5T5U3; [1]): 4.07 | pKd (GRIP2_6, Q9C0E4; [1]): below the threshold | pKd (PDZRN3_1, Q9UPQ7; [1]): 3.8

SSALYGESDL [ACTN2, P35609]
pKd (SYNJ2BP, P57105; [1]): 3.87 | pKd (DLG4_1, P78352; [1]): below the threshold | pKd (MPP6, Q9NZW5; [1]): below the threshold | pKd (MAGI2_5, Q86UL8; [1]): below the threshold | pKd (GRASP, Q7Z6J2; [1]): 3.93 | pKd (PCLO, Q9Y6V0; [1]): below the threshold | pKd (MPP7, Q5T2T1; [1]): below the threshold | pKd (FRMPD1, Q5SYB0; [1]): below the threshold | pKd (GRIP1_7, Q9Y3R0; [1]): below the threshold | pKd (Inadl_4, Q8NI35; [1]): below the threshold | pKd (MAGI1_1, Q96QZ7; [1]): below the threshold | pKd (GRIP2_3, Q9C0E4; [1]): below the threshold | pKd (GRID2IP_1, A4D2P6; [1]): below the threshold | pKd (Inadl_3, Q8NI35; [1]): below the threshold | pKd (FRMPD4, Q14CM0; [1]): below the threshold | pKd (MAGI1_2, Q96QZ7; [1]): below the threshold | pKd (PTPN13_1, Q12923; [1]): below the threshold | pKd (NHERF4_2, Q86UT5; [1]): below the threshold | pKd (LIN7A, O14910; [1]): below the threshold | pKd (GRIP1_5, Q9Y3R0; [1]): below the threshold | pKd (MAGI2_3, Q86UL8; [1]): below the threshold | pKd (SCRIB_2, Q14160; [1]): 4.06 | pKd (MAST2, Q6P0Q8; [1]): 5.52 | pKd (HTRA1, Q92743; [1]): below the threshold | pKd (ARHGAP21, Q5T5U3; [1]): below the threshold | pKd (GRIP2_6, Q9C0E4; [1]): below the threshold | pKd (PDZRN3_1, Q9UPQ7; [1]): below the threshold

RLQRRRETQV [HPV18-E6_-2P, P06463]
pKd (SYNJ2BP, P57105; [2]): below the threshold | pKd (DLG4_1, P78352; [2]): below the threshold | pKd (MPP6, Q9NZW5; [2]): 3.57 | pKd (MAGI2_5, Q86UL8; [2]): below the threshold | pKd (GRASP, Q7Z6J2; [2]): below the threshold | pKd (PCLO, Q9Y6V0; [2]): below the threshold | pKd (MPP7, Q5T2T1; [2]): below the threshold | pKd (FRMPD1, Q5SYB0; [2]): below the threshold | pKd (GRIP1_7, Q9Y3R0; [2]): below the threshold | pKd (Inadl_4, Q8NI35; [2]): below the threshold | pKd (MAGI1_1, Q96QZ7; [2]): below the threshold | pKd (GRIP2_3, Q9C0E4; [2]): below the threshold | pKd (GRID2IP_1, A4D2P6; [2]): below the threshold | pKd (Inadl_3, Q8NI35; [2]): below the threshold | pKd (FRMPD4, Q14CM0; [2]): below the threshold | pKd (MAGI1_2, Q96QZ7; [2]): below the threshold | pKd (PTPN13_1, Q12923; [2]): below the threshold | pKd (NHERF4_2, Q86UT5; [2]): below the threshold | pKd (LIN7A, O14910; [2]): below the threshold | pKd (GRIP1_5, Q9Y3R0; [2]): below the threshold | pKd (MAGI2_3, Q86UL8; [2]): below the threshold | pKd (SCRIB_2, Q14160; [2]): below the threshold | pKd (MAST2, Q6P0Q8; [2]): below the threshold | pKd (HTRA1, Q92743; [2]): below the threshold | pKd (ARHGAP21, Q5T5U3; [2]): 4.03 | pKd (GRIP2_6, Q9C0E4; [2]): below the threshold | pKd (PDZRN3_1, Q9UPQ7; [2]): below the threshold

— PMC9482650, “Quantitative fragmentomics allow affinity mapping of interactomes” (Nature Communications, 2022)
